Experimental data published in patent US20230322908A1 (AC IMMUNE, published 2023).

Columns and labels:
[1] = biological target: T1, recombinant human full-length TDP-43 (TAR DNA-binding protein 43), soluble (human, UniProt Q13148 1-414); experiment: Luminex, FL TDP-43 on beads
T1 construct: Used on Luminex beads, coated on ELISA plates, and immobilized or injected in SPR; also called FL TDP-43; TDP-43 protein
Procedure: Mice were euthanized and fusion with myeloma cells was performed using splenocytes from four individual mice. Screening for antibodies from the successfully fused hybridoma cell lines were performed as follows. Diluted (1:32) cell culture supernatants were analyzed using Luminex bead-based multiplex assay (Luminex, The Netherlands). Luminex beads were conjugated to FL TDP-43 and with capturing IgGs with anti-mouse IgG-Fc antibodies specific for the IgG1, IgG2a, IgG2b, IgG2c, and IgG3 subclasses (Jackson Immunoresearch, USA). Binding to beads conjugated to FL TDP-43 identified 386 hits derived from mice immunized with the FL TDP-43 liposomal vaccine.
Luminex assays with serial dilution of antibodies were performed as described before to determine half maximal effective concentration (EC50) of binding of antibodies to FL TDP-43. In summary, all tested antibodies bind to full length TDP-43 with high affinity.

[2] = biological target: T1, recombinant human full-length TDP-43 …; experiment: SPR, immobilized soluble TDP-43
Procedure: (§1) Binding avidity to soluble or aggregated FL TDP-43 was evaluated by determing the dissociation constants (KD) using surface plasmon resonance (SPR; Biacore T200, GE Healthcare Life Sciences). Recombinant human soluble or aggregated FL TDP-43 were immobilized on a CM5 Series S sensor chip (GE Healthcare Life Sciences) by amine coupling. Soluble TDP-43 was immobilized at a concentration of 5 µg/ml in 10 mM sodium acetate (pH 4.5) with a flow rate of 5 µl/min for 420 seconds resulting in an immobilization level of 150 RU. Aggregated TDP-43 was immobilized at a concentration of 50 µg/ml in 10 mM sodium acetate (pH 4.5) with a flow rate of 5 µl/min for 840 seconds resulting in an immobilization level of 110 RU. Biotinylated TP-73 peptide (aa 181-190 of SEQ ID NO:1) was immobilized on a Series S Sensor Chip SA (GE Healthcare Life Sciences) at a concentration of 5 µg/ml in PBS-P⁺ with a flow rate of 5 µl/min for 30 seconds resulting in an immobilization level of 400 RU. […] The antibodies were injected at a flow rate of 50 µl/min for 90 seconds contact time and 700 seconds dissociation phase followed by three regenerations with 10 mM glycine-HCl pH 1.7. For the optimized SPR protocol the antibodies were diluted 3-fold starting from 300 nM and dilute down to 1.2 nM and injected for 300 seconds at 30 µl/min followed by 600 seconds dissociation. The surface was regenerated by one injection with 10 mM glycine-HCl pH 1.7. Results obtained from binding kinetics were double-referenced using a blank flow cell and a buffer cycle and were evaluated with a global 1:1 fitting model with RI. Avidities for 11 antibodies and two Fab fragments are depicted in Table 8. […] In addition, some antibodies show preferential binding to aggregated TDP-43 as compared with soluble TDP-43.

[3] = biological target: T1, recombinant human full-length TDP-43 …; experiment: indirect ELISA, coated FL TDP-43
Procedure: Antibody binding to human FL TDP-43 was determined using an indirect ELISA. ELISA plate coating with 1 µg/ml human FL TDP-43 was performed overnight in carbonate buffer at 4° C. Plates were washed with 0.05% Tween-20/PBS and then blocked with 1% bovine serum albumin (BSA) in 0.05% Tween-20/PBS for 1 hour at 37° C. Antibodies purified from hybridoma supernatants were then added in a 3-fold serial dilution starting at 1 µg/ml, and incubated for 2 hours at 37° C. after which the plates were washed. An AP-conjugated anti-mouse IgG secondary antibody (Jackson Immunoresearch Laboratories, United Kingdom) was added at 1/1000 dilution in 0.05% Tween-20/PBS for 1 hour at 37° C. After the final wash, plates were incubated with pNPP (Sigma-Aldrich, Switzerland) phosphatase substrate solution, and read at 405 nm using an ELISA plate reader (Tecan, Switzerland).

[4] = biological target: T2, recombinant human aggregated full-length TDP-43 (human, UniProt Q13148 1-414); experiment: SPR, immobilized aggregated TDP-43
T2 construct: also called aggregated TDP-43; aggregated FL TDP-43
Procedure: as §1

[5] = biological target: T1, recombinant human full-length TDP-43 …; experiment: SPR, mAb captured, FL TDP-43 injected; mean
Procedure: Binding affinity to soluble FL TDP-43 was evaluated by determing the dissociation constants (KD) using surface plasmon resonance (SPR; Biacore T200, GE Healthcare Life Sciences). Goat-anti mouse capture antibody was immobilized on a CM5 Series S sensor chip (GE Healthcare Life Sciences) by amine coupling. Antibodies were captured at a concentration of 2-5 µg/ml in PBS-P⁺ (GE Healthcare Life Sciences) with a flow rate of 10 µl/min for 120 seconds resulting in a capture level of 350-1000 RU. […] Dissociation was recorded for 1 h followed by one regeneration with 10 mM glycine-HCl pH 1.7. Results obtained from binding kinetics were double-referenced using a blank flow cell and a buffer cycle and were evaluated with a global 1:1 fitting model with RI.

[6] = biological target: T1, recombinant human full-length TDP-43 …; experiment: SPR, immobilized soluble TDP-43; Fab fragment, not whole antibody; soluble TDP-43 on the chip
[7] = biological target: T1, recombinant human full-length TDP-43 …; experiment: SPR optimized protocol, immobilized soluble TDP-43
[8] = biological target: T2, recombinant human aggregated …; experiment: SPR optimized protocol, immobilized aggregated TDP-43

T2 sequence (Q13148 whole entry): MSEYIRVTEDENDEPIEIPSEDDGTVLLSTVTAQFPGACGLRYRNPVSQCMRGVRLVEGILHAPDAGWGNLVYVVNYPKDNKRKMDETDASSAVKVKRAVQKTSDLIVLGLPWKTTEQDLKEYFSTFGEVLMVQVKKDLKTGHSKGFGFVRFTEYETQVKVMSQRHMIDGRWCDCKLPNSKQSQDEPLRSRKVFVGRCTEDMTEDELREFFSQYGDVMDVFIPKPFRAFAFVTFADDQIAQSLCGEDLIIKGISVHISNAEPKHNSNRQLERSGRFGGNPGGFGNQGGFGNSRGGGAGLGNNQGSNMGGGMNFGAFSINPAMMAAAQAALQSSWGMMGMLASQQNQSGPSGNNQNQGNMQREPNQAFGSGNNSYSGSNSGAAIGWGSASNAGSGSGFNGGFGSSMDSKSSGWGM
T1 sequence (Q13148 whole entry): as above

Row | Binder | EC50 [1] [nM] | Kd [2] [nM] | koff [2] [s⁻¹] | kon [2] [M⁻¹ s⁻¹] | EC50 [3] [µg/mL] | Kd [4] [nM] | koff [4] [s⁻¹] | kon [4] [M⁻¹ s⁻¹] | Kd [5] [nM] | koff [5] [s⁻¹] | kon [5] [M⁻¹ s⁻¹] | Kd [6] [nM] | Kd [7] [nM] | koff [7] [s⁻¹] | kon [7] [M⁻¹ s⁻¹] | Kd [8] [nM] | koff [8] [s⁻¹] | kon [8] [M⁻¹ s⁻¹]
1 | ACI-7069-641H1-Ab2 (antibody, mouse IgG2b, V domains shown, Mouse IgG2b, kappa, from hybridoma; also called 641H1E7) VH: QVQLKESGPGLVAPSQSLSITCTVSGFSLTNYGVHWVRQPPGKGLEWLGLMWAGGSTNYNSALMSRLSISKDNSKSQVFLKMNSLQTDDTAMYYCVIYRTGFAYWGQGTLVTVSA VL: DVLMTQTPLSLPVSLGDQASISCRSSQSIVHTIGNTYLEWYLQKPGQSPKLLIYKVSNRFSGVPDRFSGSGSGTDFTLKISRVEAEDLGVYYCFQGSHVPFTFGSGTKLEIK | < 0.01 | 6.76 | 0.000841 | 125000 | 0.016 | 1.6 | 0.000193 | 121000 |  |  |  |  |  |  |  |  |  | 
2 | 633B12C8 Fab (Fab, V domains shown, Fab fragment; also called Fab fragment of ACI-7069-633B12-Ab1) VH: EVQLQQSGPELVKPGASVKISCKTSGFTFTEYSMHWVKQSHGKSLEWIGGINPNNGGTSYNQKFKGKATLTVDKSSSTAYMELRSLTSEDSAVYYCARESWGQGTTLTVSS VL: not shown |  |  | 0.000146 | 55100 |  | 6.9 | 0.000215 | 32200 |  |  |  | 2.8 |  |  |  |  |  | 
3 | ACI-7069-633B12-Ab1 (IgG2a variant) (antibody, V domains shown, Recombinantly produced mouse IgG2a isotype; also called 633B12C8*; ACI-7069-633B12-Ab1 (IgG2a isotype)) VH: EVQLQQSGPELVKPGASVKISCKTSGFTFTEYSMHWVKQSHGKSLEWIGGINPNNGGTSYNQKFKGKATLTVDKSSSTAYMELRSLTSEDSAVYYCARESWGQGTTLTVSS VL: not shown |  |  |  |  |  |  |  |  |  |  |  |  | 0.22 | 1.08e-05 | 61800 | 0.18 | 1.32e-05 | 84000
4 | ACI-7071-809D9-Ab2 (antibody, mouse IgG2b, V domains shown, Mouse IgG2b, kappa, from hybridoma; also called 809D9C2) VH: QVQLQQSGAELVRPGVSVKISCKGSGYKFTDYSMHWVKQSHTKSLEWIGVISTYYGDTTYNQKFKGKATITVDKSSSTAYMELARLTSEDSAIYYCATYGNFPASFSYWGQGTLVTVSA VL: DIVMTQAAPSIPVTPGESVSISCRSSKSLLHSNGNTYLYWFLQRPGQSPQLLIYRMSNLASGVPDRFSGSGSGTAFTLRISRVEAEDVGVYYCMQHLEYPFTFGSGTKLEIK | < 0.01 | 10.6 | 0.000821 | 77100 | 0.017 | 2.25 | 0.000216 | 95900 |  |  |  |  |  |  |  |  |  | 
5 | ACI-7069-636E5-Ab1 (antibody, mouse IgG2b, V domains shown, Mouse IgG2b, lambda, from hybridoma; also called 636E5B8) VH: EVHLVESGGDLVMPGGSLKLSCAASGFTFSNYGMSWVRQTPDKRLEWVATISSGGKYINYLDSLKGRFTISRDNAKNTLYLQMSSLKSEDTAMYYCAKDYGSGWAWFAYWGQGTLVTVSA VL: QLVLTQSSSASFSLGASAKLTCTLSSQHSTYTIEWYQQQPLKPPKYVMELKKDGSHSTGDGIPDRFSGSSSGADRYLSISNIQPEDEAIYICGVGDTIKEQFVYVFGGGTKVTVL | < 0.01 | 43.8 | 0.000682 | 15600 | 0.015 | 2.43 | 0.000274 | 113000 |  |  |  |  |  |  |  |  |  | 
6 | ACI-7069-634H10-Ab2 (antibody, mouse IgG2b, V domains shown, Mouse IgG2b, kappa, from hybridoma; also called 634H10H7) VH: EVQLQQSGAELVKPGASVRLSCTASGFNIKDTYMHWVKQRPEQGLEWIGRIDPANSNTKFDPKFQGKATITSDTSSNTAYLQLSSLTSEDTAVYYCARFYGGSHWYFDVWGAGTTVTVSS VL: DIKMTQSPSSMYASLGERVTITCKASQDIKSYLSWYQHKPWKSPKALIYYATSLADGVPSRFSGSGSGQDYSLTISSLESDDTATYYCLQQGESPYTFGGGTKLEIK | < 0.01 | 19.7 | 0.000874 | 44300 | 0.053 | 1.51 | 0.000166 | 110000 |  |  |  |  |  |  |  |  |  | 
7 | ACI-7069-642D12-Ab1 (IgG2a variant) (antibody, V domains shown, Recombinantly produced mouse IgG2a isotype; also called 642D12B4 *; ACI-7069-642D12-Ab1 (IgG2a isotype)) VH: EVQLQQSGAELVKPGASVRLSCTASGFNIKDPYMHWVRQRPKQGLEWIGRIDPADGNTKYDPKFQGKATLTADTSSNVAYLHLSSLTSEDTAVYYCARFYGSSHWYFDVWGAGTTVTVSS VL: DIKMTQSPSSMYASLGERVTITCKASQDIKRYLSWYQQKPWKSPKILIYYATSLADGVPSRFSGTGSGQDYSLTISSLESDDVATYYCLQQGESPYTFGGGTKLEIK |  |  |  |  |  |  |  |  |  |  |  |  | 3.9 | 0.00045 | 115000 | 0.69 | 9.87e-05 | 149000

Continued by falling Kd [4], values first:

Row | EC50 [1] [nM] | Kd [2] [nM] | koff [2] [s⁻¹] | kon [2] [M⁻¹ s⁻¹] | EC50 [3] [µg/mL] | Kd [4] [nM] | koff [4] [s⁻¹] | kon [4] [M⁻¹ s⁻¹] | Kd [5] [nM] | koff [5] [s⁻¹] | kon [5] [M⁻¹ s⁻¹] | Kd [6] [nM] | Kd [7] [nM] | koff [7] [s⁻¹] | kon [7] [M⁻¹ s⁻¹] | Kd [8] [nM] | koff [8] [s⁻¹] | kon [8] [M⁻¹ s⁻¹] | Binder
8 | < 0.01 | 3.66 | 0.00065 | 178000 | 0.011 | 1.28 | 0.000184 | 144000 |  |  |  |  |  |  |  |  |  |  | ACI-7069-646B7-Ab1 (antibody, mouse IgG2b, V domains shown, Mouse IgG2b, kappa, from hybridoma; also called 646B7F7) VH: QVQLKESGPGLVAPSQSLSITCTVSGFSLTNFGVHWVRQPPGKGLEWLGIMWAGGSTNYNSALMSRLSISKDNSKSQVFLKMNSLQTDDTAMYYCVIYKTGFAYWGQGTLVTVSA VL: DVLMTQTPLSLPVSLGDQASISCRSSQSIVHAIGNTYLEWYLQKPGQSPKLLIYKVSNRFSGVPDRFSGSGSGTDFTLKISRVEAEDLGVYYCFQGSHVPFTFGSGTKLEIK
9 | < 0.01 | 486 | 0.000774 | 1590 | 0.053 | 0.82 | 7.1e-05 | 86100 |  |  |  |  |  |  |  |  |  |  | ACI-7069-631B2-Ab1 (antibody, mouse IgG1, V domains shown, Mouse IgG1, kappa, from hybridoma; also called 631B2A2) VH: EVQLQQSGPELVKPGASVKISCKTSGYTFTEYSIHWVKQSHGESLEWIGGINPDNGGTRYNQKFKGKATLTVDKSSSTAYMDLRSLTSEDSAVYYCARESWGQGTTLTVSS VL: not shown
10 | < 0.01 | 1.68 | 0.000167 | 99400 | 0.014 | 0.81 | 7.63e-05 | 94700 | 0.423 | 1.36e-05 | 32000 |  |  |  |  |  |  |  | ACI-7071-809F12-Ab1 (antibody, mouse IgG2b, V domains shown, Mouse IgG2b, kappa, from hybridoma; also called 809F12D8) VH: QVQLKESGPGLVAPSQSLSITCTVSGFSLNRNGVQWVRQPPGKGLEWLGVIWPGGSTNCNSALMSRLSISKDNSKSQVFLKMNSLHTDDTGIYYCARVGGNYVWDYNNYAWGQGTLVTVSA VL: DVLMTQTPLSLPVSLGDQASISCRSSQNIVHSIGNTYLEWYLQKPGQSPKLLIYKVSNRFSGVPDRFSGSGSGTDFTLKISRVEAEDLGVYYCFQGSHVPYTFGGGTKLEIR
11 | 0.18 | 406 | 0.000545 | 1340 | 0.102 | 0.68 | 2.36e-05 | 34800 |  |  |  |  |  |  |  |  |  |  | ACI-7071-712A6-Ab1 (antibody, mouse IgG2c, V domains shown, Mouse IgG2c; also called 712A6B10) VH: QVQLQQSGAELVKPGTSVKLSCKASAYTFTEYTIHWIKQKSGQGLEWIGWFHPENDNIKYNENFKDKATLTADRSSSTVYMELSRLTSEDSAVYFCAGTSGYGDYWGQGTTLTVSS VL: not shown
